Self-cleavage data for 167 variants are collected here from the RNAGym collection of RNA variant scans (doi:10.7554/elife.80360).

B1: HDV Ribozyme (parent)
chain: GGCCGGCAUGGUCCCAGCCUCCUCGCUGGCGCCGGCUGGGCAACAUUCCGAGGGGACCGUCCCCUCGGUAAUGGCGAAUGGGACCCA

Variants of B1 are the subject of this data set. The data set is described as follows: self-cleavage, relative activity (ratio to wild type); higher = more cleavage; co-transcriptional.
For the variant U20C C62A, the self-cleavage was found to be 0.
As to G5C G54A, the self-cleavage came to 0.0831.
U9C G76C: the self-cleavage worked out at 1.11.
Turning to G25C A77G, the self-cleavage is 0.111.
C30A A70U: the self-cleavage came to 0.62.
The figure for U46G C61A is 0.617.
As for C3U U47C, the self-cleavage was 0.564.
For G1U G5C, the self-cleavage was found to be 0.755.
Regarding C15A A45U, the self-cleavage is 0.475.
The figure for G2U C58A is 0.0494; for C19A A83C it is 0.0426.
With A16U A87C, the self-cleavage stood at 1.04.
Consider U37A G55A, for which the self-cleavage was 0.283.
As to C4A G80U, the self-cleavage is 0.048.
As to C3U G6U, the self-cleavage came to 0.0934.
For C18A G25A, the self-cleavage came out at 0.133.
U27C C64A: the self-cleavage was found to be 0.705.
As for G52U C62G, the self-cleavage was found to be 0.106.
The figure for A8G U20A is 0.151; for C24A A83C it is 0.192; for G11U G76U it is 0.596.
Take C26A U47G: the self-cleavage turned out to be 0.923.
C26U G50U: the self-cleavage came to 1.12.
On to G54A C64G, for which the self-cleavage amounted to 0.657.
For C36U G39C, the self-cleavage was 0.119.
The figure for U9G A78U is 0.0692; for C62G G82U it is 0.0923; for G34U U69C it is 0.204.
As for U65A A78C, the self-cleavage came to 0.259.
Consider C4A A43U, for which the self-cleavage came out at 0.0707.
For the variant C21G C44A, the self-cleavage stood at 0.
As for A45U C57G, the self-cleavage is 0.831.
Take A45G C85G: the self-cleavage was 0.88.
Then G40C G73A, with 0.223; and C15A C36A, with 0.0692.
Then G34U G73U, with 0.0455; and G11U U12C, with 0.125; and A8G G28A, with 0.166.
Regarding G31A U37A, the self-cleavage is 0.128.
Then G50U C85A, with 0.742; and C4U A77U, with 0.415; and G5A U37C, with 0.764.
As for C14G C22U, the self-cleavage was found to be 0.306.
With C32A G40A, the self-cleavage amounted to 0.242.
Then C86A, with 0.926.
With A8U A70U, the self-cleavage turned out to be 0.772.
With C36G G54C, the self-cleavage turned out to be 0.243.
Consider G53A G67C, for which the self-cleavage came to 1.04.
The figure for U60A C86A is 0.577; for C30A G73U it is 0.111; for C22A C26U it is 0.578.
With U9A, the self-cleavage stood at 1.04.
As to G5C A87C, the self-cleavage amounted to 0.268.
The figure for C7U A77U is 0.151; for C49U U60A it is 0.718; for C57G A78G it is 0.629.
Take C41G C85U: the self-cleavage came to 0.629.
Take G80U C86G: the self-cleavage came out at 0.243.
For C41U G74U, the self-cleavage came to 0.806.
As to G67C A71U, the self-cleavage came out at 0.716.
On to C61U C84G, for which the self-cleavage was found to be 0.589.
For the variant U47C U72A, the self-cleavage was 0.65.
For the variant C21G U69A, the self-cleavage turned out to be 0.0426.
Then G59C G82A, with 0.32.
As to G6A C85A, the self-cleavage turned out to be 0.895.
As for G59U C66A, the self-cleavage was 0.904.
Take A45C G81C: the self-cleavage turned out to be 0.0489.
With G25U C63A, the self-cleavage worked out at 0.0791.
As for G31C U79C, the self-cleavage stood at 0.282.
For C44G U69A, the self-cleavage was determined as 0.657.
Take G38U U72A: the self-cleavage amounted to 0.0378.
The figure for G11A U27C is 0.447; for G6A A83C it is 0.291.
Consider C21A U47C, for which the self-cleavage is 0.
C7U U27G: the self-cleavage came to 0.431.
Take G28A A43U: the self-cleavage amounted to 0.0241.
As for G6A U46A, the self-cleavage came out at 0.208.
On to C30U U47C, for which the self-cleavage is 0.401.
In the case of U60G A78G, the self-cleavage turned out to be 0.72.
With U60G A78C, the self-cleavage is 0.151.
Regarding A8G C84A, the self-cleavage was 0.598.
With G35C C84A, the self-cleavage is 0.271.
As to U65G G82U, the self-cleavage turned out to be 0.453.
Consider G11C C36G, for which the self-cleavage was 0.148.
On to C15U A83G, for which the self-cleavage came out at 0.45.
Regarding C36U A71U, the self-cleavage worked out at 0.471.
Then C18G A78C, with 0.
Take G39U U65A: the self-cleavage was 0.627.
With G17U C58A, the self-cleavage came to 0.847.
As for G6A C64G, the self-cleavage turned out to be 0.604.
The figure for A51C C66A is 1.09; for C26U U46A it is 0.731; for G1C A42U it is 0.
Take A16C U27G: the self-cleavage was 0.138.
Regarding C14A U27G, the self-cleavage turned out to be 0.895.
Then G17C C49G, with 0.107.
Take C22A A42U: the self-cleavage came out at 0.111.
Take G55A G68A: the self-cleavage was determined as 0.831.
For G11A G82A, the self-cleavage came to 0.253.
As to G53A C75U, the self-cleavage is 0.256.
Regarding G38A C84U, the self-cleavage stood at 0.109.
The figure for C61U A87C is 0.784.
Turning to C15U U79A, the self-cleavage stood at 1.11.
Regarding C18U C48U, the self-cleavage stood at 0.639.
Then A16U U72A, with 0.554; and G54A U79G, with 0.643; and A77G G82C, with 0.389.
Turning to U65A C85U, the self-cleavage is 0.791.
The figure for G53U G76U is 0.939; for G28U C63A it is 0.0978.
Then U9C C57U, with 0.95; and G2A C4A, with 0.0615; and C13G G80A, with 0.
For G40U C64U, the self-cleavage came to 0.59.
For U27A U60A, the self-cleavage stood at 0.918.
Then G1C U47A, with 0.256; and U46C A70G, with 1.03.
On to C18G G39A, for which the self-cleavage stood at 0.
Consider C84A C85A, for which the self-cleavage is 0.571.
As to A70C A78U, the self-cleavage is 0.162.
Consider G67U C75U, for which the self-cleavage amounted to 0.104.
The figure for C19A A56G is 0.256; for G25A C44A it is 0.
On to G40A G52A, for which the self-cleavage is 0.858.
As for G29A G40U, the self-cleavage stood at 0.0831.
For G73C G81A, the self-cleavage came out at 0.0817.
As for C66U A77C, the self-cleavage came to 0.34.
G35U C41A: the self-cleavage amounted to 0.3.
Regarding A45G C62U, the self-cleavage came to 1.03.
Then G17A A77G, with 0.295.
Take C26U G52A: the self-cleavage was 1.14.
On to C58G C62A, for which the self-cleavage worked out at 0.796.
Turning to C32G G52A, the self-cleavage came to 0.254.
On to U12C G34C, for which the self-cleavage is 0.115.
U9C G52U: the self-cleavage worked out at 1.06.
In the case of C15A C86U, the self-cleavage was 0.831.
Then U20G U65C, with 0.222.
Take C26G C58U: the self-cleavage amounted to 0.931.
On to C13G A51C, for which the self-cleavage is 0.0723.
Turning to G80A G82U, the self-cleavage came to 0.0511.
For U37G U60C, the self-cleavage came out at 0.256.
For the variant A16U C18A, the self-cleavage stood at 0.107.
Then G2U C84G, with 0.0213.
Consider G34A G74A, for which the self-cleavage worked out at 0.0852.
In the case of G11C G31A, the self-cleavage is 0.0804.
In the case of U47A C85A, the self-cleavage is 0.962.
Take C7U C33G: the self-cleavage worked out at 0.0536.
In the case of U65C G80C, the self-cleavage is 0.249.
As to C7A C61G, the self-cleavage was 0.806.
On to G55U U60G, for which the self-cleavage worked out at 1.12.
Then C19G G80A, with 0.131; and C49U G80U, with 0.219; and G28C C48A, with 0.166.
Then U20G G59U, with 0.231.
On to U20A C64G, for which the self-cleavage stood at 0.0639.
For C7G G80A, the self-cleavage came out at 0.145.
Then C7A G10C, with 0.201; and C24G G80A, with 0.0791; and G38A A83G, with 0.142.
The figure for G11A A42C is 0.101; for G1A G29U it is 0.0639; for A8G U9G it is 0.831.
Consider C24U A43G, for which the self-cleavage turned out to be 0.
Then C3U C63G, with 0.572; and C30A U60G, with 0.502.
Take G2C C48U: the self-cleavage was 0.0923.
The figure for G54A A71G is 0.959.
